Test results as given in patent publication US20240376207A1 (JIANGSU HENGRUI PHARMACEUTICALS, published 2024).

How the values were obtained:
[1] = biological target: T1, his-tagged human PVRIG (h-PVRIG-his) recombinant protein (human, UniProt Q6DKI7 41-171, limits assumed); experiment: ELISA, coated antigen
T1 construct: bought from Acrobiosystems; also called Human PVRIG-his; human PVRIG recombinant protein; not shown: his tag
T1 sequence (looked up): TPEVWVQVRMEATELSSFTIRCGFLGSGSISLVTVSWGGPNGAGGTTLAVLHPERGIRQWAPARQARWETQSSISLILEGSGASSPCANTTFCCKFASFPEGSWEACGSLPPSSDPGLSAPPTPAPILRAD
Method: (§1) A human, cynomolgus monkey, or mouse PVRIG protein (at a concentration of 1 μg/mL) was coated on a 96-well microplate at 100 μL per well, and incubated overnight at 4° C. The plate was washed three times with wash buffer at 250 μL per well. For each wash, the plate was shaken for 10 s to ensure adequate cleaning. A blocking solution (PBS+0.05% Tween20+1% BSA) was added at 300 μL/well, and the plate was incubated at room temperature for 1 h. The plate was washed three times with wash buffer at 250 μL per well. For each wash, the plate was shaken for 10 s to ensure adequate cleaning. Dilutions of the test anti-PVRIG antibodies were added at 100 μL/well. The plate was incubated at 37° C. for 1 h. The plate was washed three times with wash buffer at 250 μL per well. The […] anti-human IgG secondary antibody (Sigma, A8667) was added at 100 μL per well. The plate was incubated at 37° C. for 1 h. The plate was washed three times with wash buffer at 250 μL per well. TMB was added at 100 μL/well, and the plate was incubated in the dark for 15 min. 0.16 M sulfuric acid was added at 50 μL/well. The OD values at 450 nm were read by using a Thermo MultiSkanFc microplate reader, and the EC₅₀ values of the binding of the anti-PVRIG antibodies to PVRIG were calculated.
(§2) Binding of the humanized anti-PVRIG/TIGIT bispecific antibodies to human and cynomolgus monkey PVRIG and their blocking of the ligand of human PVRIG were detected according to the methods of Examples 4, 5 and 6.

[2] = biological target: T2, his-tagged cynomolgus monkey PVRIG (cyno-PVRIG-his) recombinant protein (cynomolgus monkey); experiment: ELISA, coated antigen
T2 construct: expressed in HEK293, purified by Ni-NTA; also called Monkey PVRIG-his; cynomolgus monkey PVRIG recombinant protein
T2 chain: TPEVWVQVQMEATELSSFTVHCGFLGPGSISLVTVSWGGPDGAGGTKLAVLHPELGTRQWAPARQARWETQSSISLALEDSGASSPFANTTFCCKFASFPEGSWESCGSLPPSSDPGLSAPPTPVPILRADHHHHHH
Method: as §1, §2

[3] = biological target: cynomolgus monkey TIGIT recombinant protein (cynomolgus monkey, UniProt A0A7N9I9V4 89-209); experiment: ELISA, coated antigen
Chain of cynomolgus monkey TIGIT recombinant protein (A0A7N9I9V4 entry or part of it): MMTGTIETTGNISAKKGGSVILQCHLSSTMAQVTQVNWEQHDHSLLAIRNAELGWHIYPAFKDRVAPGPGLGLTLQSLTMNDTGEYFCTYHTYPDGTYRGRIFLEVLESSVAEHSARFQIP
Method: as §1
(§3) Similarly to Examples 4, 5 and 6, the binding of humanized anti-PVRIG/TIGIT bispecific antibodies to human and cynomolgus monkey TIGIT and blocking of binding of human TIGIT to ligand were detected, where PVRIG protein was replaced with TIGIT and PVRL2 was replaced with PVR.

[4] = biological target: T3, human PVRIG expressed on cells (human, UniProt Q6DKI7 41-326); experiment: FACS, cells overexpressing target
T3 construct: whole, on cells; also called Human PVRIG FACS; cells overexpressing human PVRIG
T3 sequence (looked up): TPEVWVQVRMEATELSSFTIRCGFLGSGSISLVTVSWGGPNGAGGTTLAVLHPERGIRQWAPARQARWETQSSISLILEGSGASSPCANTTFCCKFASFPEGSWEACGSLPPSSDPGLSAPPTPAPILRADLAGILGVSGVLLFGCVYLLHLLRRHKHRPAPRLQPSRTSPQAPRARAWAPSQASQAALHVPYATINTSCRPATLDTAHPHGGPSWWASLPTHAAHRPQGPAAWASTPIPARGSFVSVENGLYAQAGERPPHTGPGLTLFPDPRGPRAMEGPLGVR
Method: (§4) The expression plasmid carrying human or cynomolgus monkey PVRIG gene sequence was transfected into HEK293 cells, and the over-expressing stable transfection monoclonal cell strain was obtained by antibiotic screening and infinite dilution. Overexpressing cells were seeded into a 96-well plate at 2×10⁵ cells/per well. The cells were centrifuged at 300 g for 5 min, the supernatant was then removed, 100 μL of the test antibody was added, and the mixture was incubated at 4° C. for 1 h. The mixture was centrifuged, the supernatant was removed, the plate was washed 3 times with 200 μL of wash buffer (PBS+2% FBS), and then 100 μL of an anti-human IgG secondary antibody (Invitrogen, A-11013) labeled with Alexa Fluor 488 diluted at 1:500 was added. The mixture was incubated at 4° C. for 1 h. The plate was centrifuged, and the supernatant was removed. The plate was washed 3 times with 200 μL of wash buffer (PBS+2% FBS). The cells were resuspended in 100 μL of PBS and tested on a flow cytometer (BD FACS Calibur or BD FACS Canto_II).
as §2

[5] = biological target: T4, cynomolgus monkey PVRIG expressed on cells (cynomolgus monkey, UniProt A0A2K5WVV8 1-322); experiment: FACS, cells overexpressing target
T4 construct: whole, on cells; also called Monkey PVRIG FACS; cells overexpressing cynomolgus monkey PVRIG
T4 sequence: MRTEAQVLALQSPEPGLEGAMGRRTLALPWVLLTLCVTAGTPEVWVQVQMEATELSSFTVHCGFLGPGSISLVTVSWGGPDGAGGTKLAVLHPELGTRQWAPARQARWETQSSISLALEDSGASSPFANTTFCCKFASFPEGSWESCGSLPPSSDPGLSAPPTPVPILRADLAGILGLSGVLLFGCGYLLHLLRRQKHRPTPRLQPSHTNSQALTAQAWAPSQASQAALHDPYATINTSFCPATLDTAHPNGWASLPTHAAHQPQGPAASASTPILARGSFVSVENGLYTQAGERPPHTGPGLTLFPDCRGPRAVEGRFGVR
Method: as §4, §2

[6] = biological target: T5, cynomolgus monkey TIGIT expressed on cells (cynomolgus monkey, UniProt A0A7N9I9V4 89-312); experiment: FACS, cells overexpressing target
T5 construct: whole, on cells; also called cells overexpressing cynomolgus monkey TIGIT
T5 sequence (A0A7N9I9V4 entry or part of it): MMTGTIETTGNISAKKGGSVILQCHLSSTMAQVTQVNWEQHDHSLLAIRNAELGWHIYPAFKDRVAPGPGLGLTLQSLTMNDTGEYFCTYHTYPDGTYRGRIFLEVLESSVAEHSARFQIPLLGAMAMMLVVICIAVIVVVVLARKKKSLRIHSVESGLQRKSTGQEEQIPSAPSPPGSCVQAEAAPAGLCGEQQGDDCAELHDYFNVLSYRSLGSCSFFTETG
Method: as §4, §3

[7] = biological target: T6, mouse IgG2a Fc-tagged human PVRIG (h-PVRIG-mIgG2a Fc) recombinant protein (human, UniProt Q6DKI7 41-171, limits assumed); experiment: competition ELISA; human PVRIG coated, competitor human PVRL2
T6 construct: bought from Acrobiosystems; not shown: mouse IgG2a Fc tag
T6 sequence (looked up): T1 sequence (looked up)
Method: The h-PVRIG-mIgG2a Fc protein (at a concentration of 1 μg/mL) was coated on the 96-well microplate at 100 μL per well, and incubated overnight at 4° C. The plate was washed three times with wash buffer at 250 μL per well. For each wash, the plate was shaken for 10 s to ensure adequate cleaning. A blocking solution was added at 300 μL/well, and the plate was incubated at room temperature for 1 h. The plate was washed three times with wash buffer at 250 μL per well. For each wash, the plate was shaken for 10 s to ensure adequate cleaning. 50 μL of diluted test anti-PVRIG antibody and 50 μL of his-tagged ligand PVRL2 were added to each well, and the plate was incubated at 37° C. for 1 h. The plate was washed three times with wash buffer at 250 μL per well. The HRP-labeled anti-his-tagged secondary antibody (Genscrpit) diluted at 1:2000 was added at 100 μL per well. The plate was incubated at 37° C. for 1 h. The plate was washed three times with wash buffer at 250 μL per well. TMB was added at 100 μL/well, and the plate was incubated in the dark for 15 min. 0.16 M sulfuric acid was added at 50 μL/well. OD values at 450 nm were measured using a Thermo MμtLtiSkanFc microplate reader, and the IC₅₀ values of the anti-PVRIG antibodies blocking the binding of PVRIG to PVRL2 were calculated.
as §2

[8] = biological target: T7, human PVRIG antigen (AcroBiosystem, PVG-H52H4) (human, UniProt Q6DKI7 41-171, limits assumed); experiment: SPR (Biacore X100), antibody captured on Protein A chip, 1:1 fit
T7 sequence (looked up): T1 sequence (looked up)
Text: The affinity of the humanized bispecific antibodies for human PVRIG, cynomolgus monkey PVRIG and human TIGIT was detected using Biacore. Humanized bispecific antibodies were each captured on a Protein A biosensor chip (GE lifesciences, 29127557) of a Biacore instrument (Biacore X100, GE), and then human PVRIG antigen (AcroBiosystem, PVG-H52H4), cynomolgus monkey PVRIG antigen (SEQ ID NO: 1), or human TIGIT antigen (AcroBiosystem, TIT-H52H3) at a series of concentration gradients each flowed over the chip surface. The reaction signals were detected in real time using a Biacore instrument (Biacore X100, GE) to obtain association and dissociation curves. The data obtained from the experiment were fitted using the (1:1) Binding model with the BiacoreX100 evaluation software 2.0 GE to obtain affinity values (see Table 31).

B1: humanized anti-PVRIG/TIGIT bispecific antibody 1708-151H7 (bispecific antibody, human IgG4 S228P, kappa)
heavy: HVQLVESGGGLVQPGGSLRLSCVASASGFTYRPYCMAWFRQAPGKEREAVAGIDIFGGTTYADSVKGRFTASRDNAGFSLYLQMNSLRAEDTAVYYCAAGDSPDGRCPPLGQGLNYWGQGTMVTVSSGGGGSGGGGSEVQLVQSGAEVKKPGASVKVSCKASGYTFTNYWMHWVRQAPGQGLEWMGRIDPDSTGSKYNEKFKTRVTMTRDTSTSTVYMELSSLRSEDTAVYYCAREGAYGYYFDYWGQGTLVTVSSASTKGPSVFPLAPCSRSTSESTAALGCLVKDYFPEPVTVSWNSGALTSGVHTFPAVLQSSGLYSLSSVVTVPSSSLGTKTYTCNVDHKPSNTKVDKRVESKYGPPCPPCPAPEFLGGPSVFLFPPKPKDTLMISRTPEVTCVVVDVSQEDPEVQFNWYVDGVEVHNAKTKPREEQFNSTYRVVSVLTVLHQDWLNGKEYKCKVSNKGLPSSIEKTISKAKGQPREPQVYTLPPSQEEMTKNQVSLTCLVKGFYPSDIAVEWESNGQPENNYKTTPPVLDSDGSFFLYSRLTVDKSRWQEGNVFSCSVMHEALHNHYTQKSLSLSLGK
light: DIQMTQSPSSLSASVGDRVTITCRASENIYSYLAWYQQKPGKSPKLLIYNARTLAEGVPSRFSGSGSGTDFTLTISSLQPEDFATYYCQYHSGSPLPFGGGTKVEIKRTVAAPSVFIFPPSDEQLKSGTASVVCLLNNFYPREAKVQWKVDNALQSGNSQESVTEQDSKDSTYSLSSTLTLSKADYEKHKVYACEVTHQGLSSPVTKSFNRGEC
B1 showed an EC50 [1] of 0.679 nM, an EC50 [2] of 9.44 nM and an EC50 [3] of 0.119 nM. For the same binder, the EC50 [4] was 0.043 nM, the EC50 [5] was 11.5 nM and the EC50 [6] was 0.012 nM. It also gave an IC50 [7] of 0.598 nM, a Kd [8] of 0.125 nM and a koff [8] of 0.000757 s⁻¹. For the same binder, the kon [8] was 6.06e+06 M⁻¹ s⁻¹.
